The data set addresses Zta (BZLF1:Strep/FLAG) (Epstein-Barr virus, UniProt P03206 149-245). As to the kind of experiment: EMSA; apparent, Hill fit; […]; pH and temperature not stated. To be noted: protein: recombinant; tags: tandem StrepII/FLAG; chain copies: 2; label: 32P 5' end; blunt. On the technique in general: In EMSA bound probe runs differently from free probe, usually more slowly.

Chain of Zta (BZLF1:Strep/FLAG) (P03206 149-245): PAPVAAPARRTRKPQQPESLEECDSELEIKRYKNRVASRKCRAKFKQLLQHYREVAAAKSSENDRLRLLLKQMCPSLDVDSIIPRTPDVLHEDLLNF

B1: BMRF1 ZRE A (dsDNA)
DNA 1: TTGGTGGATGTGCGAGCCATAAAGC
DNA 2: GCTTTATGGCTCGCACATCCACCAA
For the molecule B1, the Kd came out at 328 ± 166 nM.

B2: BRLF1 meZRE3 (dsDNA)
DNA 1: CAGTCAAAATTCGCGATGCTATAAA
DNA 2: TTTATAGCATCGCGAATTTTGACTG
modifications: 5mC at positions 12 and 14 of strand 1; bottom-strand methylation not shown in material
For the molecule B2, the Kd turned out to be 135 ± 45 nM.

B3: oriLyt ZRE5 (dsDNA)
DNA 1: TTGTCACCTTTGCACATTTGGTCAG
DNA 2: CTGACCAAATGTGCAAAGGTGACAA
For B3, the Kd was determined as 37.7 ± 4.3 nM.

B4: BHLF1 ZRE2 (dsDNA)
DNA 1: TTTAAGGTTTGCTCAGGAGTGGGG
DNA 2: CCCCACTCCTGAGCAAACCTTAAA
As to B4, the Kd is 91.6 ± 38.5 nM.

B5: BMLF1 ZRE AP-1 (dsDNA)
DNA 1: GCGAAGCACTGACTCATGAAGGTGA
DNA 2: TCACCTTCATGAGTCAGTGCTTCGC
Turning to B5, the Kd was determined as 40.8 ± 23 nM.

B6: BBLF4 ZRE B (dsDNA)
DNA 1: CTCTCCTATGAGCGTTATGTGGACT
DNA 2: AGTCCACATAACGCTCATAGGAGAG
B6: the Kd is 484 ± 244 nM.

B7: BBLF4 meZRE A (dsDNA)
DNA 1: ATGACTCGTGTGCGAGCCGGTTTCG
DNA 2: CGAAACCGGCTCGCACACGAGTCAT
modifications: 5mC at position 13 of strand 1; bottom-strand methylation not shown in material
As to B7, the Kd stood at 16.3 ± 2.6 nM.

B8: BRLF1 ZRE2 (dsDNA)
DNA 1: CTAAGCTTATGAGCGATTTTATCAC
DNA 2: GTGATAAAATCGCTCATAAGCTTAG
As to B8, the Kd amounted to 113 ± 11.9 nM.

B9: BRLF1 meZRE2 (dsDNA)
DNA 1: CTAAGCTTATGAGCGATTTTATCAC
DNA 2: GTGATAAAATCGCTCATAAGCTTAG
modifications: 5mC at position 14 of strand 1; bottom-strand methylation not shown in material
As for B9, the Kd was determined as 12.7 ± 8.2 nM.

B10: BRLF1 ZRE3 (dsDNA)
DNA 1: CAGTCAAAATTCGCGATGCTATAAA
DNA 2: TTTATAGCATCGCGAATTTTGACTG
Turning to B10, the Kd stood at 1190 ± 227 nM.

B11: BBLF4 ZRE A (dsDNA)
DNA 1: ATGACTCGTGTGCGAGCCGGTTTCG
DNA 2: CGAAACCGGCTCGCACACGAGTCAT
For the molecule B11, the Kd was found to be 219 ± 41 nM.

B12: BMRF1 meZRE A (dsDNA)
DNA 1: TTGGTGGATGTGCGAGCCATAAAGC
DNA 2: GCTTTATGGCTCGCACATCCACCAA
modifications: 5mC at position 13 of strand 1; bottom-strand methylation not shown in material
Consider B12, for which the Kd is 20.2 ± 12.5 nM.

B13: BBLF4 meZRE B (dsDNA)
DNA 1: CTCTCCTATGAGCGTTATGTGGACT
DNA 2: AGTCCACATAACGCTCATAGGAGAG
modifications: 5mC at position 13 of strand 1; bottom-strand methylation not shown in material
As to B13, the Kd came to 18 ± 4.2 nM.
